From publication PMC7987032 (medRxiv, 2021) come the findings set out here.

The target in the experiment is SARS-CoV-2 RBD (SARS-CoV-2 (Wuhan-Hu-1), UniProt P0DTC2). Nature of the experiment: BLI.

B1: CV2-75 (antibody, V domains shown)
VH: QVQLQESGPGLVKPSETLSLTCTVSGGSISSYYWSWIRQPPGKGLEWIGYVYYSGSTNYNPSLKSRVTISVDTSKNEFSLKLSSVTAADTAVYYCASSQRPDGNLYYFDYWGQGTLVTVSS
VL: SYVLTQPPSVSVAPGQTARITCGGNNIGSKTVHWYQQKPGQAPVLVVYDDSDRPSGIPERFSGSNSGNTATLTISRVEAGDEADYYCQVWDSSSDHYVFGTGTKVTVL
Take B1: the binding result was “binds”.
